Data as given in patent US20220194999A1.

Target: HLA-A*02:01 class I complex (conditional p*HLA*02:01, biotinylated heavy chain with beta2-microglobulin) (human)
Assay: UV peptide exchange, HLA class I ELISA, % of Pos peptide
Conditions: remark: other sources report otherwise

| Average % | Exch I (%) | Exch II (%) | average relative binding (%) | Binder |
| --- | --- | --- | --- | --- |
| 7% | 6.5% | 7.5% | < 15% | LVVVGACGV (here or on the partner: biotinylated heavy chain) [KRAS.G12C mutant peptide …] |
| 4.5% | 4.3% | 4.6% | < 15% | LVVVGAVGV (here or on the partner: biotinylated heavy chain) [KRAS.G12V mutant peptide …] |
